Like-named read-outs stand apart in the source and are kept apart here.
Tests used:
[1] = Hybridization-based ELISA, PMO concentration in tissues of severe SMA mice; format: in vivo; settings: mouse, sc, 40 mg/kg s.c. at PD0, PD7 mice
Protocol: To determine the effects of DG9 peptide in increasing PMO uptake, we evaluated the biodistribution of unconjugated PMO and DG9-PMO in the peripheral and CNS tissues. We used a well-established hybridization-based ELISA designed specifically to detect the PMO to compare the concentration of DG9-PMO and unconjugated PMO in the tissues of treated PD7 mice ([51]).
ELISA was performed as described previously ([51], [69]). In brief, protein was extracted from frozen tissue sections (~20 μm) using RIPA buffer with cOmplete, Mini, EDTA-free protease inhibitor cocktail. The probes (Integrated DNA Technologies) were designed complementary to the PMO sequence with phosphorothioated backbones at the 5′ and 3′ ends. The 5′ and 3′ ends were labeled with digoxigenin and biotin, respectively. The tissue lysates (0.02 mg/mL protein concentration) were pretreated with 2.5 mg/mL trypsin containing 10 mM CaCl2 at 37°C overnight to digest the DG9 peptide. The probes were added to the samples and allowed to hybridize at 37°C for 30 minutes. Following the probe-PMO hybridization, the hybridized mixtures were added to Pierce NeutrAvidin Coated 96-Well Plates, Black (Thermo Fisher Scientific), to allow avidin-biotin interaction between the plate and the probes. The unhybridized probes were digested using micrococcal nuclease enzyme at 0.1 gel unit/μL (New England Biolabs). This was followed by the addition of an anti-digoxigenin antibody conjugated with ALP 1:5,000 (11093274910, Roche Applied Sciences). Attophos AP Fluorescent Substrate (Promega) was added to the PMO/DG9-PMO probes, and fluorescence was detected at 444 nm excitation and 555 nm emission by using a monochromator SpectraMax M3 plate reader (Molecular Devices).

SMN2 (ISS-N1 intron 7) = test: FL-SMN2 expression relative to Δ7 SMN2 transcripts by RT-qPCR in tissues of severe SMA mice; format: in vivo, mouse; settings: both doses (40 and 80 mg/kg s.c. at PD0), tissues at PD7, peripheral and CNS tissues, RT-qPCR ΔΔCt
Protocol: To evaluate the change of FL-SMN2 expression relative to Δ7 SMN2 transcripts, we used real-time quantitative PCR (RT-qPCR) at PD7; the mice were treated with DG9-PMO at PD0. In both doses, DG9-PMO treatment led to a 4- to 30-fold higher FL-SMN2 expression than NT control in both peripheral and CNS tissues (Figure 2A and Supplemental Figure 3A). It also led to a ~5-fold increase in FL-SMN2 expression when compared with unconjugated PMO, MOE, and R6G-PMO treatments in the majority of the tissues (Figure 2A, Supplemental Figure 3A, and Supplemental Figure 1F). […] SMN levels were higher in CNS tissues in the DG9-PMO–treated than MOE-treated mice, though no statistical significance was seen. […] SMN levels were similar in DG9-PMO and MOE in the tissues collected from mice at PD30.
Injections were carried out using a 30-gauge Hamilton syringe. SMA mice identified following genotyping were randomly assigned to a treatment group. […]
Frozen tissues harvested at PD7 were sectioned using a cryostat (Leica CM 1950) into 20 μm sections. […] The relative gene expression for FL-SMN2 over the deletion of SMN2 transcripts without exon 7 was normalized to the NT control samples and analyzed using the ΔΔCt method. The expression of denervation markers relative to 18S was normalized to the healthy heterozygous control samples collected at PD30 and analyzed using the ΔΔCt method.

severe SMA mouse model = test: Righting reflex test; format: in vivo; settings: 40 mg/kg s.c. at PD0, compared with the other groups
Text: To evaluate the effects of systemic DG9-PMO treatment on muscle strength and the function of motor neurons, we used several functional tests and compared motor function in the treated and NT mice at various time points. We performed the hind limb suspension (HLS) assay and the righting reflex test during the early weeks of life. […] It should be noted that the results beyond PD12 are biased, as only the healthiest unconjugated PMO–, MOE-, and R6G-PMO–treated mice survived to these time points.
This spontaneous ability of the mice to right themselves up was tested from PD2 until the weaning stage PD20. The neonates were placed on their backs, and the time taken to reposition and place all 4 paws on the ground was noted. The recording time was a maximum of 60 seconds. Each neonate underwent 3 trials, with a resting period of at least 10 minutes between trials. The data are expressed as the mean time to complete the righting reflex test ± SEM.

CD68+ macrophages = test: CD68+ macrophage detection in quadriceps muscle; format: in vivo, mouse; settings: 40 mg/kg s.c. at PD0, quadriceps muscle sections at PD7
Text: Peptides can typically pose as antigens, leading to immune reactions. Therefore, we examined the susceptibility of DG9-PMO to cause immune activation at an early neonatal stage, by looking at CD68^+ cells, indicative of circulating and tissue macrophages, in the quadriceps muscle sections at PD7 (Supplemental Figure 9, A and B). […] The apparent reduction in circulating macrophages following DG9-PMO treatment is likely due to amelioration of the atrophic musculature, which would compensate for any elevation seen from the treatment itself.
Cryosections (7 μm) of the quadriceps muscle were fixed with 4% PFA. The sections were incubated with rat anti-mouse CD68 antibody (MCA1957T, Bio-Rad). The number of CD68^+ cells was counted and averaged from at least 5 sections per sample at random intervals at 20× original magnification.

With `CC(=O)N[C@@H](Cc1ccc(O)cc1)C(=O)N[C@@H](C)C(=O)N[C@H](CCCNC(=N)N)C(=O)N[C@H](C(=O)N[C@@H](CCCNC(=N)N)C(=O)N[C@@H](CCCNC(=N)N)C(=O)N[C@H](CCCNC(=N)N)C(=O)NCC(=O)N1CCC[C@H]1C(=O)N[C@@H](CCCNC(=N)N)C(=O)NCC(=O)N[C@@H](Cc1ccc(O)cc1)C(=O)N[C@@H](C)C(=O)N[C@H](CCCNC(=N)N)C(=O)N[C@H](C(=O)N[C@@H](CCCNC(=N)N)C(=O)N[C@@H](CCCNC(=N)N)C(=O)N[C@H](CCCNC(=N)N)C(=O)NCC(=O)N1CCC[C@H]1C(=O)N[C@@H](CCCNC(=N)N)C(=O)N[C@H](CCCNC(=N)N)C(=O)N1C[C@@H](COP(=O)(N(C)C)N2C[C@@H](COP(=O)(N(C)C)N3C[C@@H](COP(=O)(N(C)C)N4C[C@@H](COP(=O)(N(C)C)N5C[C@@H](COP(=O)(N(C)C)N6C[C@@H](COP(=O)(N(C)C)N7C[C@@H](COP(=O)(N(C)C)N8C[C@@H](COP(=O)(N(C)C)N9C[C@@H](COP(=O)(N(C)C)N%10C[C@@H](COP(=O)(N(C)C)N%11C[C@@H](COP(=O)(N(C)C)N%12C[C@@H](COP(=O)(N(C)C)N%13C[C@@H](COP(=O)(N(C)C)N%14C[C@@H](COP(=O)(N(C)C)N%15C[C@@H](COP(=O)(N(C)C)N%16C[C@@H](COP(=O)(N(C)C)N%17C[C@@H](COP(=O)(N(C)C)N%18C[C@@H](COP(=O)(N(C)C)N%19CCC(C(N)=O)CC%19)O[C@@H](n%19cc(C)c(=O)[nH]c%19=O)C%18)O[C@@H](n%18ccc(N)nc%18=O)C%17)O[C@@H](n%17cnc%18c(N)ncnc%18%17)C%16)O[C@@H](n%16ccc(N)nc%16=O)C%15)O[C@@H](n%15cc(C)c(=O)[nH]c%15=O)C%14)O[C@@H](n%14cc(C)c(=O)[nH]c%14=O)C%13)O[C@@H](n%13cc(C)c(=O)[nH]c%13=O)C%12)O[C@@H](n%12ccc(N)nc%12=O)C%11)O[C@@H](n%11cnc%12c(N)ncnc%12%11)C%10)O[C@@H](n%10cc(C)c(=O)[nH]c%10=O)C9)O[C@@H](n9cnc%10c(N)ncnc%109)C8)O[C@@H](n8cnc9c(N)ncnc98)C7)O[C@@H](n7cc(C)c(=O)[nH]c7=O)C6)O[C@@H](n6cnc7c(=O)[nH]c(N)nc76)C5)O[C@@H](n5ccc(N)nc5=O)C4)O[C@@H](n4cc(C)c(=O)[nH]c4=O)C3)O[C@@H](n3cnc4c(=O)[nH]c(N)nc43)C2)O[C@@H](n2cnc3c(=O)[nH]c(N)nc32)C1)C(C)C)C(C)C` (stereo partly drawn) [DG9-PMO] the level at time molar at 7 days after dosing (PD7) ([1]; brain, n = 5, read-out: average AO detection, brain) was 8.36 nM, the level at time molar at 7 days after dosing (PD7) ([1]; heart, n = 4, read-out: average AO detection, heart) was 8.89 nM and the level at time molar at 7 days after dosing (PD7) ([1]; kidney, n = 6, read-out: average AO detection, kidney) was 20000 nM. For the same molecule, the level at time molar at 7 days after dosing (PD7) ([1]; liver, n = 5, read-out: average AO detection, liver) was 200000 nM, the level at time molar at 7 days after dosing (PD7) ([1]; quadriceps muscle, n = 5, read-out: average AO detection, quadriceps muscle) was 12.2 nM and the level at time molar at 7 days after dosing (PD7) ([1]; spinal cord, n = 4, read-out: average AO detection, spinal cord) was 13.9 nM. The “FL-SMN2 expression (relative to Δ7 SMN2), fold higher than NT control” value (SMN2 (ISS-N1 intron 7)) was 4- to 30 fold, the “time to right (righting reflex)” value (severe SMA mouse model) was “significantly shorter time to right themselves on their paws between PD6 and PD10” and the “number of CD68+ macrophages compared with the Hets” value (CD68+ macrophages) was “no significant difference”.

Reference: paper PMC10077475, “DG9-conjugated morpholino rescues phenotype in SMA mice by reaching the CNS via a subcutaneous administration” (JCI Insight, 2023)
